Assay results as given in paper PMC5406781, “Myxococcus xanthus DK1622 Coordinates Expressions of the Duplicate groEL and Single groES Genes for Synergistic Functions of GroELs and GroES” (Frontiers in Microbiology, 2017).

B1: Myxococcus xanthus DK1622 GroEL1 (natural protein, UniProt Q1D2S1 1-549, looked up)
chain: MAKDILFDVRAREAILRGVNILADAVKVTLGPKGRNVVIEKSFGSPTITKDGVTVAKEIELENKFENMGAQMVKEVASKTSDVAGDGTTTATVLAQAIFREGAKLVAAGHNPMDIKRGIDKAVGAIVAELKKLAKPTKDKKEIAQVGTISANGDETIGTIIADAMEKVGKEGVITVEEAKGLETTLDVVEGMQFDRGYLSPYFVTDPERMEAALNDALILINEKKISSMKDLLPILEQVARAGKPLLIIAEDIEGEALATLVVNKIRGVLNVCAVKAPGFGDRRKAMLEDIATLTGGRMIAEDLGIKLDTITLQDLGRAKRITVDKDNTTIVDGAGGQQEIEARVKQIRAQIEETSSDYDREKLQERLAKLVGGVAVINVGAATETEMKEKKARVEDALNATRAAVEEGVVPGGGVAYIRCLKALDGLQLSGGEKFGVDIIRRAVEEPLRQIVGNGGLEGSVVVNKVKESSGPFGFNAATGTYEDLLAAGVIDPAKVSRTALQNAASVSSLMLTTEAMVAERPKEEKDLPAGGGMGGMGGMGGMGGMGM
notes: printed Mw 57.9 kDa; no His-tag added; UniProt may number the two paralogues the other way round (groL2 for the gene next to groES); also called Cpn60; chaperonin GroEL; source: E. coli BL21(DE3), pET22b (pET22b-GroEL1-NoHis); purified (100-kDa cut-off concentration, Superdex 200) for the pull-down, in cell extract for native PAGE; copies: 14
B2: Myxococcus xanthus DK1622 GroEL2 (natural protein, UniProt Q1D3Y5 1-547, looked up)
chain: MAAKEIFFHQSAREAILRGVRTLSDAVAVTLGPKGRNVVIEKSFGSPTITKDGVTVAKEIDLENKFENMGAQMVKEVASKTSDKAGDGTTTATVLARAIYEEGLKLVAAGHSPMDLKRGIDKAVEVVVGELKSLSKPTADKKAITQVGTISANGDETIGAIIADAMEKVGKEGVITVEEAKGLETTLDVVEGMQFDRGYVSPYFVTNRERMEAVLEDPYILISEKKVSSMQDMIPLLEQVARSGKPLIIIADDIEGEALATLVVNKIRGVLNVCAVKAPGFGDRRKEMLQDIAVLTGGTVVSEDLGHKFETLTLTDLGRAKRVTVDKDNTTVVDGVGTKAAIEGRIKLIRTQIDSVTSDYDREKLQERLAKLVGGVAVINVGAATETEMKEKKARVEDALHATRAAVEEGIVPGGGVAYLRALPALEKLKPGGEQDFGVAIIRRALQEPLRKIASNAGVEGAVVINKVREGTGAFGYNARTEVYEDLEKAGVIDPTKVERTALQNAASVASLLLTTEAMVAERPKGKAKGGGAGAGMPDYGGDDMDY
notes: printed Mw 58.1 kDa; no His-tag added; UniProt may number the two paralogues the other way round (groL1 for the stand-alone gene); also called Cpn60; chaperonin GroEL; source: E. coli BL21(DE3), pET22b (pET22b-GroEL2-NoHis); purified (100-kDa cut-off concentration, Superdex 200) for the pull-down, in cell extract for native PAGE; copies: 14
B3: Myxococcus xanthus DK1622 GroES without His-tag (natural protein, UniProt Q1D2S2 1-96, looked up)
chain: MKIRPLQDRLIVKRVAEENKTKGGLFIPDTAKEKPLEGKVIAVGNGKVQEDGKVRPLDIKAGDTILFSKYAGTEIKLDGEEHLILREEDVLGVIEK
notes: printed Mw 10.7 kDa; construct named NoHis; also called Cpn10; GroES-NoHis; source: E. coli BL21(DE3), pET28a-GroES-NoHis, in cell extract

Biological target: the molecule itself
Experiment: native gel or EMSA; native PAGE (no SDS or mercaptoethanol, run in ice-water) of extracts of E. coli BL21(DE3) cells expressing GroEL1, GroEL2 or GroES alone, or GroEL1/GroEL2 co-expressed with GroES

B1 and B2 are the same in “stoichiometry N” value: 14 for the first, 14 for the second.

In the case of B3, the “stoichiometry N” value is reported as 7.
